The target in this data set is T1, DprA R123E (Riemerella anatipestifer ATCC11845, UniProt E4TBU2 1-367, R123E).
T1 sequence: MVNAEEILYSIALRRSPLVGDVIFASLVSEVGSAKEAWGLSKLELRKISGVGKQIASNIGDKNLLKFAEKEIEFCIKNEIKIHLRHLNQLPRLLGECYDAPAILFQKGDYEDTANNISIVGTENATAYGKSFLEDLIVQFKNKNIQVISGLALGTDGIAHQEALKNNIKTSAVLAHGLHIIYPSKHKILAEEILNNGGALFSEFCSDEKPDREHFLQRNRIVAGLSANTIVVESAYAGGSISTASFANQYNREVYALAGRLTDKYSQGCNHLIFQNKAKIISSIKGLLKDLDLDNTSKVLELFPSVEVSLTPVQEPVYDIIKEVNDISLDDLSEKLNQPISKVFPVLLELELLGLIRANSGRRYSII
The data set can be described thus: EMSA; up to 20 uM DprA R123E; 25 mM HEPES pH 7.0, 150 mM NaCl, 10% glycerol, 1 mM DTT, 0.05% IGEPAL, 30 min at 30 C; 8% native PAGE in 0.5x TBE on ice. Particulars: protein: recombinant, tags: C-terminal His6, chain copies: 2, label: biotin. (Mobility shift assays separate free from complexed probe on a gel.)

For AAAAACTACGGAACTGACTAAAGGCAGAAAAACTAAACGG (ssDNA) [RA-ssDNA2], the binding result is “no binding”.

In the case of TAGGCTCTGCTAAGGAAGCGTGGGGTCTGTCTAAGTTGGA (ssDNA) [RA-ssDNA1], the binding result is “no binding”.

B1: dsDNA annealed from RA-ssDNA1 (dsDNA)
DNA 1: TAGGCTCTGCTAAGGAAGCGTGGGGTCTGTCTAAGTTGGA
DNA 2: TCCAACTTAGACAGACCCCACGCTTCCTTAGCAGAGCCTA
B1: the binding result (blunt) is “no binding”.

The values are drawn from PMC6533540, “DprA Is Essential for Natural Competence in Riemerella anatipestifer and Has a Conserved Evolutionary Mechanism”.
